{"source": "paper PMC5496502", "about": "(Chemical Science, 2015)", "target": "MET-Fc: extracellular MET domain fused with human IgG1-Fc (human, UniProt P08581 25-932)", "sequence (P08581 25-932)": "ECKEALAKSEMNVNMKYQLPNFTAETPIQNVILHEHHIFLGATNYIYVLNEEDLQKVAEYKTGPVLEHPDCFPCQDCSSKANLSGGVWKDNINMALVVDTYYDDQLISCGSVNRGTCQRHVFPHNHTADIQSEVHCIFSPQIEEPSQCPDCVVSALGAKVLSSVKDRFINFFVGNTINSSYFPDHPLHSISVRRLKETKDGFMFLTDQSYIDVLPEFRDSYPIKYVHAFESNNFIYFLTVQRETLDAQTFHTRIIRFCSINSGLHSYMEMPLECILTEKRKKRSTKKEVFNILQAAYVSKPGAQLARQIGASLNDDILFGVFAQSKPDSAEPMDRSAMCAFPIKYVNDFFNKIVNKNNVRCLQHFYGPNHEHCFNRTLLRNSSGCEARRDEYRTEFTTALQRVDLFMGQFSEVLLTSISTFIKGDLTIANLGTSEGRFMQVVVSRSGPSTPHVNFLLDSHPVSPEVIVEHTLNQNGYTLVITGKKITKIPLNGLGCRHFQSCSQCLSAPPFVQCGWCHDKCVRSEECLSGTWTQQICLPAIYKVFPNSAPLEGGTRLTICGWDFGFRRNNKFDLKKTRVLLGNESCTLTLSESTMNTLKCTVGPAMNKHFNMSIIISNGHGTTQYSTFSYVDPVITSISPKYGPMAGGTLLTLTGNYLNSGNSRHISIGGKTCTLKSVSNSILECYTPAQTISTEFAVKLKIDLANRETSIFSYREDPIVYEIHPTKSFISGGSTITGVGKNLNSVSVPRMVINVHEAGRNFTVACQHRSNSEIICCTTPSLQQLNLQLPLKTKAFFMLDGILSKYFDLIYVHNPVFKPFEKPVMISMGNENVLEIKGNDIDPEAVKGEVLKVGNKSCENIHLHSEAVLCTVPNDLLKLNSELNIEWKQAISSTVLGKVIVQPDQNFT", "experiment": "AlphaScreen or HTRF", "data": [{"binder": "K1B: synthetic K1 domain of HGF/SF (residues 125-209) with C-terminal Gly-Gly-Lys(biotin) (domain or fragment, biotin on the side chain of the added C-terminal lysine; three disulfide bonds) IRNCIIGKGRSYKGTVSITKSGIKCQPWSSMIPHEHSFLPSSYRGKDLQENYCRNPRGEEGGPWCFTSNPEVRYEVCDIPQCSEVGGK", "values": [{"measurement": "Kd", "value": "~16", "unit": "nM"}]}]}
